Here are results for nine molecules from US20250084142A1 (INTARCIA THERAPEUTICS, published 2025).

T1: NPY2R
T1 sequence (P49146 1-381, species assumed, looked up): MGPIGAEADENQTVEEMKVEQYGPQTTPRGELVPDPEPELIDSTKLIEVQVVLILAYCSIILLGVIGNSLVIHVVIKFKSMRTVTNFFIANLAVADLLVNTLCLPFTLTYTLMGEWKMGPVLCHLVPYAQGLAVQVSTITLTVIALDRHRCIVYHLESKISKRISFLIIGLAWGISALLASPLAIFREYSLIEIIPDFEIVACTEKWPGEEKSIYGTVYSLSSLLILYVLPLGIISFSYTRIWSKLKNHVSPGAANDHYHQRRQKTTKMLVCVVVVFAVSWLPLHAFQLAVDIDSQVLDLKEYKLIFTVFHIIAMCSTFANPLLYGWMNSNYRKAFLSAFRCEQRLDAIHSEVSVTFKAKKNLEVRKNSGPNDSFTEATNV

T2: NPY5R
T2 sequence (Q15761 1-445, species assumed, looked up): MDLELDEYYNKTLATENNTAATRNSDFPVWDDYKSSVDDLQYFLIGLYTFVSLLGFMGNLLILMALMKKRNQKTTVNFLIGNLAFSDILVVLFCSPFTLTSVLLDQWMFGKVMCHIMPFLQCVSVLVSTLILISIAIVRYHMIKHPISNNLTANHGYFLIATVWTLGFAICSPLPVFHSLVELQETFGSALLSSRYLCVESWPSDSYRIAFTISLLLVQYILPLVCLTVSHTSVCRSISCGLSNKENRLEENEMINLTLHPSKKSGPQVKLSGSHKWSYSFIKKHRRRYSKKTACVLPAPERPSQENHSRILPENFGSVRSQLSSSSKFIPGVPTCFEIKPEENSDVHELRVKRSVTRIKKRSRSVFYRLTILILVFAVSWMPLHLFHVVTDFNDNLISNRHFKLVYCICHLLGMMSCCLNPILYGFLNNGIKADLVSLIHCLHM

B1: Compound A28 (peptide)
peptide: PKPEKPGKDASPKEWNRYYK([γGlu-γGlu-C20 diacid])DLRHYLNWLTRQRF-NH2
modifications: N-terminus assumed
SMILES: CC(C)C[C@H](NC(=O)[C@H](CC(=O)O)NC(=O)[C@H](CCCCNC(=O)CC[C@H](NC(=O)CC[C@H](NC(=O)CCCCCCCCCCCCCCCCCCC(=O)O)C(=O)O)C(=O)O)NC(=O)[C@H](Cc1ccc(O)cc1)NC(=O)[C@H](Cc1ccc(O)cc1)NC(=O)[C@H](CCCNC(=N)N)NC(=O)[C@H](CC(N)=O)NC(=O)[C@H](Cc1c[nH]c2ccccc12)NC(=O)[C@H](CCC(=O)O)NC(=O)[C@H](CCCCN)NC(=O)[C@@H]1CCCN1C(=O)[C@H](CO)NC(=O)[C@H](C)NC(=O)[C@H](CC(=O)O)NC(=O)[C@H](CCCCN)NC(=O)CNC(=O)[C@@H]1CCCN1C(=O)[C@H](CCCCN)NC(=O)[C@H](CCC(=O)O)NC(=O)[C@@H]1CCCN1C(=O)[C@H](CCCCN)NC(=O)[C@@H]1CCCN1)C(=O)N[C@@H](CCCNC(=N)N)C(=O)N[C@@H](Cc1c[nH]cn1)C(=O)N[C@@H](Cc1ccc(O)cc1)C(=O)N[C@@H](CC(C)C)C(=O)N[C@@H](CC(N)=O)C(=O)N[C@@H](Cc1c[nH]c2ccccc12)C(=O)N[C@@H](CC(C)C)C(=O)N[C@H](C(=O)N[C@@H](CCCNC(=N)N)C(=O)N[C@@H](CCC(N)=O)C(=O)N[C@@H](CCCNC(=N)N)C(=O)N[C@@H](Cc1ccccc1)C(N)=O)[C@@H](C)O
B2: Compound A36 (peptide)
peptide: PKPEK([γGlu-γGlu-C19 diacid])PGEDASPKEWNRYYKDLRHYLNWLTRQRF-NH2
modifications: N-terminus assumed
SMILES: CC(C)C[C@H](NC(=O)[C@H](CC(=O)O)NC(=O)[C@H](CCCCN)NC(=O)[C@H](Cc1ccc(O)cc1)NC(=O)[C@H](Cc1ccc(O)cc1)NC(=O)[C@H](CCCNC(=N)N)NC(=O)[C@H](CC(N)=O)NC(=O)[C@H](Cc1c[nH]c2ccccc12)NC(=O)[C@H](CCC(=O)O)NC(=O)[C@H](CCCCN)NC(=O)[C@@H]1CCCN1C(=O)[C@H](CO)NC(=O)[C@H](C)NC(=O)[C@H](CC(=O)O)NC(=O)[C@H](CCC(=O)O)NC(=O)CNC(=O)[C@@H]1CCCN1C(=O)[C@H](CCCCNC(=O)CC[C@H](NC(=O)CC[C@H](NC(=O)CCCCCCCCCCCCCCCCCC(=O)O)C(=O)O)C(=O)O)NC(=O)[C@H](CCC(=O)O)NC(=O)[C@@H]1CCCN1C(=O)[C@H](CCCCN)NC(=O)[C@@H]1CCCN1)C(=O)N[C@@H](CCCNC(=N)N)C(=O)N[C@@H](Cc1c[nH]cn1)C(=O)N[C@@H](Cc1ccc(O)cc1)C(=O)N[C@@H](CC(C)C)C(=O)N[C@@H](CC(N)=O)C(=O)N[C@@H](Cc1c[nH]c2ccccc12)C(=O)N[C@@H](CC(C)C)C(=O)N[C@H](C(=O)N[C@@H](CCCNC(=N)N)C(=O)N[C@@H](CCC(N)=O)C(=O)N[C@@H](CCCNC(=N)N)C(=O)N[C@@H](Cc1ccccc1)C(N)=O)[C@@H](C)O
B3: Compound A35 (peptide)
peptide: PKPEK([γGlu-γGlu-C18 diacid])PGEDASPKEWDRYYKDLRHYLNWLTRQRF-NH2
modifications: N-terminus assumed
SMILES: CC(C)C[C@H](NC(=O)[C@H](CC(=O)O)NC(=O)[C@H](CCCCN)NC(=O)[C@H](Cc1ccc(O)cc1)NC(=O)[C@H](Cc1ccc(O)cc1)NC(=O)[C@H](CCCNC(=N)N)NC(=O)[C@H](CC(=O)O)NC(=O)[C@H](Cc1c[nH]c2ccccc12)NC(=O)[C@H](CCC(=O)O)NC(=O)[C@H](CCCCN)NC(=O)[C@@H]1CCCN1C(=O)[C@H](CO)NC(=O)[C@H](C)NC(=O)[C@H](CC(=O)O)NC(=O)[C@H](CCC(=O)O)NC(=O)CNC(=O)[C@@H]1CCCN1C(=O)[C@H](CCCCNC(=O)CC[C@H](NC(=O)CC[C@H](NC(=O)CCCCCCCCCCCCCCCCC(=O)O)C(=O)O)C(=O)O)NC(=O)[C@H](CCC(=O)O)NC(=O)[C@@H]1CCCN1C(=O)[C@H](CCCCN)NC(=O)[C@@H]1CCCN1)C(=O)N[C@@H](CCCNC(=N)N)C(=O)N[C@@H](Cc1c[nH]cn1)C(=O)N[C@@H](Cc1ccc(O)cc1)C(=O)N[C@@H](CC(C)C)C(=O)N[C@@H](CC(N)=O)C(=O)N[C@@H](Cc1c[nH]c2ccccc12)C(=O)N[C@@H](CC(C)C)C(=O)N[C@H](C(=O)N[C@@H](CCCNC(=N)N)C(=O)N[C@@H](CCC(N)=O)C(=O)N[C@@H](CCCNC(=N)N)C(=O)N[C@@H](Cc1ccccc1)C(N)=O)[C@@H](C)O
B4: Compound A29 (peptide)
peptide: PKPEKPGEDASPKEWNRYYK([γGlu-γGlu-C20 diacid])DLRHYLNWLTRQRF-NH2
modifications: N-terminus assumed
SMILES: CC(C)C[C@H](NC(=O)[C@H](CC(=O)O)NC(=O)[C@H](CCCCNC(=O)CC[C@H](NC(=O)CC[C@H](NC(=O)CCCCCCCCCCCCCCCCCCC(=O)O)C(=O)O)C(=O)O)NC(=O)[C@H](Cc1ccc(O)cc1)NC(=O)[C@H](Cc1ccc(O)cc1)NC(=O)[C@H](CCCNC(=N)N)NC(=O)[C@H](CC(N)=O)NC(=O)[C@H](Cc1c[nH]c2ccccc12)NC(=O)[C@H](CCC(=O)O)NC(=O)[C@H](CCCCN)NC(=O)[C@@H]1CCCN1C(=O)[C@H](CO)NC(=O)[C@H](C)NC(=O)[C@H](CC(=O)O)NC(=O)[C@H](CCC(=O)O)NC(=O)CNC(=O)[C@@H]1CCCN1C(=O)[C@H](CCCCN)NC(=O)[C@H](CCC(=O)O)NC(=O)[C@@H]1CCCN1C(=O)[C@H](CCCCN)NC(=O)[C@@H]1CCCN1)C(=O)N[C@@H](CCCNC(=N)N)C(=O)N[C@@H](Cc1c[nH]cn1)C(=O)N[C@@H](Cc1ccc(O)cc1)C(=O)N[C@@H](CC(C)C)C(=O)N[C@@H](CC(N)=O)C(=O)N[C@@H](Cc1c[nH]c2ccccc12)C(=O)N[C@@H](CC(C)C)C(=O)N[C@H](C(=O)N[C@@H](CCCNC(=N)N)C(=O)N[C@@H](CCC(N)=O)C(=O)N[C@@H](CCCNC(=N)N)C(=O)N[C@@H](Cc1ccccc1)C(N)=O)[C@@H](C)O
B5: Compound A34 (peptide)
peptide: PKPEKPGEDASPKEWDRYYK([γGlu-γGlu-C20 diacid])DLRHYLNWLTRQRF-NH2
modifications: N-terminus assumed
SMILES: CC(C)C[C@H](NC(=O)[C@H](CC(=O)O)NC(=O)[C@H](CCCCNC(=O)CC[C@H](NC(=O)CC[C@H](NC(=O)CCCCCCCCCCCCCCCCCCC(=O)O)C(=O)O)C(=O)O)NC(=O)[C@H](Cc1ccc(O)cc1)NC(=O)[C@H](Cc1ccc(O)cc1)NC(=O)[C@H](CCCNC(=N)N)NC(=O)[C@H](CC(=O)O)NC(=O)[C@H](Cc1c[nH]c2ccccc12)NC(=O)[C@H](CCC(=O)O)NC(=O)[C@H](CCCCN)NC(=O)[C@@H]1CCCN1C(=O)[C@H](CO)NC(=O)[C@H](C)NC(=O)[C@H](CC(=O)O)NC(=O)[C@H](CCC(=O)O)NC(=O)CNC(=O)[C@@H]1CCCN1C(=O)[C@H](CCCCN)NC(=O)[C@H](CCC(=O)O)NC(=O)[C@@H]1CCCN1C(=O)[C@H](CCCCN)NC(=O)[C@@H]1CCCN1)C(=O)N[C@@H](CCCNC(=N)N)C(=O)N[C@@H](Cc1c[nH]cn1)C(=O)N[C@@H](Cc1ccc(O)cc1)C(=O)N[C@@H](CC(C)C)C(=O)N[C@@H](CC(N)=O)C(=O)N[C@@H](Cc1c[nH]c2ccccc12)C(=O)N[C@@H](CC(C)C)C(=O)N[C@H](C(=O)N[C@@H](CCCNC(=N)N)C(=O)N[C@@H](CCC(N)=O)C(=O)N[C@@H](CCCNC(=N)N)C(=O)N[C@@H](Cc1ccccc1)C(N)=O)[C@@H](C)O

Starred links: 1 amine or outer side, 2 acyl side, 3 side chain; linkers in the order of their positions; H or OH if unused. Non-standard residues stand in square brackets, D forms with d. Groups on a side chain read outwards from the residue. No end group written: not given here. *: point of attachment. C20 diacid = O=C(O)CCCCCCCCCCCCCCCCCCC(=O)*; C19 diacid = O=C(O)CCCCCCCCCCCCCCCCCC(=O)*; C18 diacid = O=C(O)CCCCCCCCCCCCCCCCC(=O)*; γGlu = O=C(O)[C@H](CCC(=O)[*:2])N[*:1]; hSer = N[C@@H](CCO)C(=O)O; αMeS = C[C@](N)(CO)C(=O)O

The target of one test is T1, NPY2R. The test can be described thus: cell-based or functional assay.
With B1, the “NPY2R pEC50” value is 10.5 -Log(EC50, M).
The same measure, in the same setting: to B2 belongs 10.9 -Log(EC50, M); to PKPEAPGK([γGlu-γGlu-C20 diacid])DASPEEW[αMeS]RYYKDLRHYLNWLTRQRF-NH2 [Compound A31], 10.4 -Log(EC50, M); to B3, 10.5 -Log(EC50, M).
Regarding B4, the “NPY2R pEC50” value is 10.9 -Log(EC50, M).
On the same count and under the same terms, to B5 belongs 10.2 -Log(EC50, M).
Same read-out and setting: to PKPEAPGK([γGlu-γGlu-C18 diacid])DASPEEWDRYYKDLRHYLNWLTRQRF-NH2 [Compound A32] belongs 10.8 -Log(EC50, M); to PKPEAPGK([γGlu-γGlu-C19 diacid])DASPEEWDRYYKDLRHYLNWLTRQRF-NH2 [Compound A33], 10.4 -Log(EC50, M).
Consider PKPEAPGK([γGlu-γGlu-C20 diacid])DASPEEW[hSer]RYYKDLRHYLNWLTRQRF-NH2 [Compound A30], for which the “NPY2R pEC50” value was 10.3 -Log(EC50, M).

A further test concerns the target T2, NPY5R. The test can be described thus: cell-based or functional assay.
On to B1, for which the “NPY5R pEC50” value is 8.8 -Log(EC50, M).
Still for that read-out and setting: with B2 the figure was 8.7 -Log(EC50, M).
For the molecule PKPEAPGK([γGlu-γGlu-C20 diacid])DASPEEW[αMeS]RYYKDLRHYLNWLTRQRF-NH2 [Compound A31], the “NPY5R pEC50” value is 8.7 -Log(EC50, M).
Same read-out and setting: with B3 the figure was 9.1 -Log(EC50, M).
Regarding B4, the “NPY5R pEC50” value was 9 -Log(EC50, M).
As to B5, the “NPY5R pEC50” value was 8.8 -Log(EC50, M).
Turning to PKPEAPGK([γGlu-γGlu-C18 diacid])DASPEEWDRYYKDLRHYLNWLTRQRF-NH2 [Compound A32], the “NPY5R pEC50” value is 9 -Log(EC50, M).
Same read-out and setting: with PKPEAPGK([γGlu-γGlu-C19 diacid])DASPEEWDRYYKDLRHYLNWLTRQRF-NH2 [Compound A33] the figure was 8.9 -Log(EC50, M); with PKPEAPGK([γGlu-γGlu-C20 diacid])DASPEEW[hSer]RYYKDLRHYLNWLTRQRF-NH2 [Compound A30], 8.5 -Log(EC50, M).
